According to patent US20160017018A1 (GENERAL HOSPITAL, published 2016):

Molecular target: T1, human CD80 (human, UniProt P33681 35-288)
T1 construct: whole, on cells; also called human CD80-expressing acute myelogenous leukemia cell line (Cat#CRL-2740, ATCC)
T1 sequence (looked up): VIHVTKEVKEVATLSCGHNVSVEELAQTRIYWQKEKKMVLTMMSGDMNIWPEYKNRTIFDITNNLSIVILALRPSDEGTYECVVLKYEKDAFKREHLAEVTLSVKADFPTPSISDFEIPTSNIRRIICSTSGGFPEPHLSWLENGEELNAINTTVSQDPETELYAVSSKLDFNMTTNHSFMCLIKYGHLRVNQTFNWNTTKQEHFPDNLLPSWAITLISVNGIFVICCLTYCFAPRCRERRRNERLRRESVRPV
Assay: flow cytometry on human CD80-expressing AML cells; grade = binding percentage of the wild-type, ++++ (100%)
Text: FIGS. 1A-C. […] PE-SA only; biotinylated protein control [porcine CD3εγ ectodomain single-chain fusion protein (pCD3εγ)] […] B) Bar graph presentation of the mean fluorescence intensity (MFI) from flow cytometry binding analysis data as described in A). Different concentrations of biotinylated pCD3εγ were used as non-specific fluorescence control. Error bars are included based on the calculated standard deviation. […] The concentration of the competitor is indicated. All figures of 1A-C are representatives of multiple individual experiments.

binding result: binds
B1: Non-N-Glycosylated soluble human CTLA-4-6×His (receptor)
chain: KAMHVAQPAVVLASSRGIASFVCEYASPGKATEVRVTVLRQADSQVTEVCAATYMMGNELTFLDDSICTGTSSGNQVALTIQGLRAMDTGLYICKVELMYPPPYYLGIGAGTQIYVIDPEPCPDSDHHHHHH
modifications: biotinylated for the direct binding stain (sites not given); unlabeled in the blocking assay
notes: Expressed in Pichia pastoris; also called wild-type soluble human CTLA-4; human CTLA-4 wild-type
